Laboratory results from article PMC11042539 (Journal of the American Chemical Society, 2011).
Where two headings read alike, the source gives them in different places.

Columns and labels:
[1] = molecular target: Ag85c (Mycobacterium tuberculosis, UniProt P9WQN9); experiment: biochemical
[2] = test system: OC[C@H]1O[C@H](O[C@H]2O[C@H](CO)[C@@H](O)[C@H](O)[C@H]2O)[C@H](O)[C@@H](O)[C@@H]1O; experiment: purified protein

Chain of Ag85c (P9WQN9 46-340 limits assumed): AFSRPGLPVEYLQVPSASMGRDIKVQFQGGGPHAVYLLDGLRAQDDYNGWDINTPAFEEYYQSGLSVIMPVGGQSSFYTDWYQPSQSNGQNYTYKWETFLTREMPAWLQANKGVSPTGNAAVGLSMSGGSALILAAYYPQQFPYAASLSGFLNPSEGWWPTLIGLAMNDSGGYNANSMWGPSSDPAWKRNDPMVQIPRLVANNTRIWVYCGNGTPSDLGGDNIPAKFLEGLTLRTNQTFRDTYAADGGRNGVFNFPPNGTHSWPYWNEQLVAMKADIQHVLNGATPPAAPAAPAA

Row | Compound | Ki [1] [µM] | Km ([2]; Ser-His-Asp catalytic triad at the trehalose binding site) [µM] | Km [2] [µM] | kcat [2] [s⁻¹] | kcat/Km [2] [M⁻¹ s⁻¹]
1 | CCCCCC(=O)OC[C@H]1O[C@H](O[C@H]2O[C@H](COC(=O)CCCCC)[C@@H](O)[C@H](O)[C@H]2O)[C@H](O)[C@@H](O)[C@@H]1O [2b, 6,6’-di-hexanoyltrehalose] | 355 ± 106 | – | – | – | –
2 | Ag85c (Mycobacterium tuberculosis H37Rv) | – | 16.9 ± 5.3 | – | – | –
3 | Ag85b (Mycobacterium tuberculosis H37Rv) | – | – | 112 | 0.003 | 30
4 | Ag85a (Mycobacterium tuberculosis H37Rv) | – | – | 175 | 0.014 | 82
